{"source": "paper PMC9878614", "key": {"[1]": {"target": "F-actin (UniProt P68133)", "conditions": "cited from earlier work"}, "[2]": {"target": "F-actin (filamentous actin) (human (endogenous in HEK293)) (UniProt P60709)", "assay": "single-molecule localisation microscopy (direct-LIVE-PAINT, TIRF); live HEK293 cells transiently transfected with LifeAct-14-EGFP plasmid (4 ng or 20 ng DNA), imaged 24 h later at 37°C; 488 nm excitation, 50 ms exposure, 2000 frames; transient binding events read as single-molecule localisations"}}, "note": "pKd: −log10 of the molar value.", "data": [{"substance": "LifeAct-14 1-14 (from UniProt Q08641)", "values": [{"measurement": "pKd", "setting": "[1]", "result": 5.92}]}, {"substance": "LifeAct-14-EGFP (from UniProt Q08641 1-14) (peptide)", "values": [{"measurement": "localizations/s (4 ng DNA transfected) (localizations/s)", "setting": "[2]", "result": 540}, {"measurement": "localizations/s (20 ng DNA transfected) (localizations/s)", "setting": "[2]", "result": 1860}]}]}
